Numbering of substitutions follows the chain as printed.
B1: GK-5E1 (antibody, V domains shown)
VH: QVTLKESGGDVVQPGRSLRLSCAASGFTFRTYGMHWVRQAPGKGPEWVALIWYDGSKKYYADSVKGRFTISRDNSKNTLYLQMNSLRAEDTAVYYCVRVRFGELYFQHWGQGTLVTVSS
VL: not shown
B2: GK-1E5 (antibody, V domains shown)
VH: EVQLVESGGGVVQPGRSLRLSCAASGFTFRSYGMHWVRQAPGKGLEWVAIIWYDGSKKYYTDSVQGRFTISRDNSKNTLYLQMNSLRAEDTAVYYCARPGIAMTGLDYWGQGTLVTVSS
VL: DIQLTQSPSTLSASVGDRVTITCRASQSISSWLAWYQQKPGKAPKLLIYKASSLESGVPSRFSGSGSGTEFTLTISSLQPDDFATYYCQQYNNYWTFGQGTKVEIK
B3: GK-5A1 (antibody, V domains shown)
VH: QVQLVESGGGVVQPGRSLRLSCAASGFTFSSYGMYWVRQAPGKGLEWVAVIWNDGSNKYYADSVKGRFTISRDNSKNTLYLQMNSLRAEDTAVYYCAREGSGWYDYYYGMDVWGQGTTVTVSS
VL: B2 VL with D1E, Q3V, N93S, E104D

Each binder was assayed against hROR2-ECD-Twin-Strep (soluble human ROR2 extracellular domain fused to a Twin-Strep-tag) (human, UniProt Q01974 34-403) (assay: SPR).
Chain of hROR2-ECD-Twin-Strep (soluble human ROR2 extracellular domain fused to a Twin-Strep-tag) (Q01974 34-403): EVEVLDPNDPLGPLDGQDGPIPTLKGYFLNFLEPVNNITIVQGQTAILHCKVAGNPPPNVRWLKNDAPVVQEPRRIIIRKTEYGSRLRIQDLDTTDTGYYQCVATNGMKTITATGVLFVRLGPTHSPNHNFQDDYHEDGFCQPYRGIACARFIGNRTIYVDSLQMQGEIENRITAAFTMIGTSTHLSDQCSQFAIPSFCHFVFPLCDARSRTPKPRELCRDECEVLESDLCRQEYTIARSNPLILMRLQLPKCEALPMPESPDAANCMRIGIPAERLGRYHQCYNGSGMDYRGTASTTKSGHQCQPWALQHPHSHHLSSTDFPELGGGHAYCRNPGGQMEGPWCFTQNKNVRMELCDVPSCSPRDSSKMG
For B1, the Kd was 2.5 nM. For B2, the Kd was 80.7 nM. For B3, the Kd was 61.3 nM.

Reference: publication PMC6224377 (2018)
